Test results published in patent publication EP4596582A1 (Sichuan Kelun-Biotech Biopharmaceutical Co., Ltd., dated 2025).

Target: T1, human B7-H3-4Ig-His protein (human, UniProt Q5ZPR3 29-466)
T1 construct: extracellular domain; Made in HEK293-EBNA cells
T1 sequence: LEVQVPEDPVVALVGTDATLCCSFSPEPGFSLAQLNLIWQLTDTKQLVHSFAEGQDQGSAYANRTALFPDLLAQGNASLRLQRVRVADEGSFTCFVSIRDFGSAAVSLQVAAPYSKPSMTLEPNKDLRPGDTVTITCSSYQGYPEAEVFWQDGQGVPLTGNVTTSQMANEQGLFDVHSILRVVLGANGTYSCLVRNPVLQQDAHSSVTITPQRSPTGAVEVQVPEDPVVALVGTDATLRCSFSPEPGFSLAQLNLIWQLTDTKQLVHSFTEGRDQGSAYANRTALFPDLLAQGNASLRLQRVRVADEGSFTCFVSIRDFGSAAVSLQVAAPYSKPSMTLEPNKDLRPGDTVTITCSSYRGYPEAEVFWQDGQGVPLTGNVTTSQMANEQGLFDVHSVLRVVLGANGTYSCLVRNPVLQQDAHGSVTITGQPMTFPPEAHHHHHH
Experiment: ELISA, antigen coated at 1 ug/ml

B1: anti-human-B7-H3 human antibody 2#8890 (antibody, human IgG1, kappa, V domains shown)
VH: QVQLQESGPGLVQPSGTLSLTCAVSGGSDSSTNWWTWVRQSPGQGLEWIGEISPIGFTSYSPSLRSRVTISVDKSKTQFSLKLSSVTAADTAVYYCARDRLYFAFWGQGTLVTVSS
VL: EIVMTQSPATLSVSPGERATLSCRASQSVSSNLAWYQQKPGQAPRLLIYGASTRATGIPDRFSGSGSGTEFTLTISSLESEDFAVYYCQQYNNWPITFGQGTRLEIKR
EC50: 1.93 ng/mL
